The values that follow come from US20240424125A1 (Zymeworks, published 2024).

Assay [1] has as its target T1, FOLR2 on HEK293-6e cells (human, UniProt P14207 17-230).
T1 construct: whole, on cells; also called human folate receptor beta (FOLR2)
As to the kind of experiment: flow cytometry on transfected HEK293-6e cells. Here is the method: FRα, FOLR2 and FOLR4 binding was assessed through flow cytometry using HEK293 transfected cells. FOLR3 binding was assessed through ELISA as FOLR3 is a soluble protein. Control anti-FOLR2 (mouse anti-human FOLR2; Nordic BioSite AB, Taby, Sweden; Cat. No. AFC-4544-2), anti-FOLR3 (mouse anti-human FOLR3; LS Bio, Seattle, WA; Cat. No. LS-C125621) and anti-FOLR4 (mouse anti-His DyLight™ 650; Novus Biologicals, Littleton, CO; Cat. No. NBP2-31055C) antibodies were included in these experiments.
(§1) FRα, FOLR2 and FOLR4 binding: Briefly, HEK293-6e cells were transfected for ˜24 hours to transiently express human FRα (Cat. No. 13420), FOLR2 (Cat. No. 13481) and FOLR4 (Cat. No. 13483) (all from GenScript Biotech, Piscataway, NJ), 1 ug DNA per 1 million cells. Following transfection, 50,000 cells were seeded in V-bottom 96-well plates and incubated with 50 nM primary antibody for 45 min under standard culturing conditions. […] Following incubation and washing, fluorescence was detected by flow cytometry on a BD LSRFortessa™ Cell Analyzer (BD Biosciences, Franklin Lake, NJ) with 1,000 minimum events collected per well.
In general terms: Flow cytometry measures light scatter and fluorescence of single cells or particles in a stream.

Assay [2] concerns the target T2, human FRα on cells (human, UniProt P15328 25-234).
T2 construct: Transiently expressed on HEK293-6e, CHO-S or HEK293 microarray cells, or endogenous on JEG-3, HEC-1-A, IGROV-1, OVCAR-3, H2110, KB-HeLa and T-47D cells; also called human folate receptor alpha; FOLR1
As to the kind of experiment: apparent Kd, flow cytometry on JEG-3 cells (endogenous FRα), 24 h at 4°C. As to the method:
(§2) Briefly, cells were seeded at 50,000 cells/well in V-bottom 96-well plates and treated with antibody for 24 hours at 4° C. to prevent internalization. […] Following incubation and washing, fluorescence was detected by flow cytometry on a BD LSRFortessa™ Cell Analyzer (BD Biosciences, Franklin Lake, NJ) with 1,000 minimum events collected per well. AF647/APC-A GeoMean (fluorescence signal geometric mean, proportional to anti-Human AF647 binding) in live cell population was plotted using GraphPad Prism Version 9 (GraphPad Software, San Diego, CA).

The target of assay [3] is T2, human FRα on cells. As to the kind of experiment: apparent Kd, flow cytometry on HEC-1-A cells (endogenous FRα), 24 h at 4°C. Here is the method: as §2
The target in assay [4] is T2, human FRα on cells. As to the kind of experiment: flow cytometry, HEK293-6e cells transiently expressing the target, 50 nM antibody. As to the method: as §1
(§3) By flow cytometry, live singlet cell population was gated using FlowJo™ v8 software (RD Biosciences, Franklin Lake, NJ), and AF647 GeoMean and % positive binding was determined in this population for each antibody.

For assay [5], the target named is T1, FOLR2 on HEK293-6e cells. The assay is described as above. As to the method: as §1, §3
The target of the next assay is T3, FOLR4 on HEK293-6e cells (human, UniProt A6ND01 20-228).
T3 construct: whole, on cells; also called human folate receptor delta (FOLR4)
T3 sequence (A6ND01 20-228): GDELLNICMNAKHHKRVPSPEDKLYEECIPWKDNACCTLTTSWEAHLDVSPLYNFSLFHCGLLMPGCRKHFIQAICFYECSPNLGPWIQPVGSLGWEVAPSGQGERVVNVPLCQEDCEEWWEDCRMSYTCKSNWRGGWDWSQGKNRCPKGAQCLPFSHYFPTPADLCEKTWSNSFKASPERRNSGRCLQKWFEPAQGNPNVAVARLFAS
The assay is described as above. As to the method: as §1, §3

In assay [6] the target is T4, cynomolgus monkey FRα on cells (cynomolgus monkey, UniProt P15328 29-234 (human entry)).
T4 construct: Transiently expressed on CHO-S cells; also called Cyno FRα; cynomolgus FRα
T4 sequence (P15328 other isoform, or with tags, fused parts or gaps limits assumed): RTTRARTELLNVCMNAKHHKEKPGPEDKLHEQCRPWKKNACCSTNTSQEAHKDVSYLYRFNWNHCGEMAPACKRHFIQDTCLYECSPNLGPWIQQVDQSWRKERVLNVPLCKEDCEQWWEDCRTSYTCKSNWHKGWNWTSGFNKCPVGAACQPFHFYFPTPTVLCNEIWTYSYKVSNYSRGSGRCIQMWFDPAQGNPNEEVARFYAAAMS
Description: apparent Kd, flow cytometry, CHO-S cells transiently expressing cynomolgus monkey FRα, 24 h at 4°C. As to the method:
(§4) Briefly, CHO-S cells were transfected for −24 hours to transiently express human or cynomolgus monkey FRα, 1 ug DNA per 1 million cells. Following transfection, cells were seeded at 50,000 cells/well in V-bottom 96-well plates and treated with antibody for 24 hours at 4° C. to prevent internalization. […] Following incubation and washing, fluorescence was detected by flow cytometry on a BD LSRFortessa™ Cell Analyzer (BD Biosciences, Franklin Lake, NJ).

The target in assay [7] is T4, cynomolgus monkey FRα on cells. Description: apparent Kd, flow cytometry, CHO-S cells transiently expressing cynomolgus monkey FRα (same experiment as Table 15.1, more digits). Here is the method:
as §4

Assay [8] has as its target T5, recombinant His-tagged human FRα (ACROBiosystems) (human, UniProt P15328 25-233).
T5 construct: also called hFRα; hFRα antigen; not shown: His tag
As to the kind of experiment: SPR (Biacore T200): hFRα amine-coupled to CM5 chip at medium antigen density, bivalent FSA injected, 1:1 Langmuir fit, mean of n=2. As to the method: CM5 Series S sensor chip, Biacore™ amine coupling kit (NHS, EDC and 1 M ethanolamine), and 10 mM sodium acetate buffers were purchased from GE Healthcare Life Science (Mississauga, ON, Canada). PBS running buffer with 0.05% Tween20 (PBST) was purchased from Teknova Inc. (Hollister, CA). Recombinant human FRα was purchased from ACRObiosystems (Newark, DE).
Screening of the variants for binding to hFRα antigen was conducted in two steps: capture of hFRα onto surface, followed by injection of three to five concentrations of variant. The hFRα surface was prepared on a CM5 Series S sensor chip by standard amine coupling methods as described by the manufacturer (GE Healthcare Life Science, Mississauga, ON, Canada). The immobilization of the hFRα was performed using Biacore™ T200 immobilization wizard with an amine coupling method aiming for resonance units (RUs) ranging from 5 to 200 RUs. Using multi-cycle kinetics, three to five concentrations of a two-fold dilution series of samples starting at 300 nM with a blank buffer control were injected at 50 uL/min for 180s with a 600s dissociation phase, resulting in a set of sensorgrams with a buffer blank reference. The hFRα surface was regenerated to prepare for the next injection cycle by one pulse of 10 mM glycine/HCl pH 1.5 for 30s at 30 uL/min. Blank-subtracted sensorgrams were analyzed using Biacore™ T200 Evaluation Software v3.0. The blank-subtracted sensorgrams were then fit to the 1:1 Langmuir binding model.
A general note: In SPR one partner is held on a chip, and binding of the other changes the refractive index at the surface.

T1 sequence (P14207 17-230): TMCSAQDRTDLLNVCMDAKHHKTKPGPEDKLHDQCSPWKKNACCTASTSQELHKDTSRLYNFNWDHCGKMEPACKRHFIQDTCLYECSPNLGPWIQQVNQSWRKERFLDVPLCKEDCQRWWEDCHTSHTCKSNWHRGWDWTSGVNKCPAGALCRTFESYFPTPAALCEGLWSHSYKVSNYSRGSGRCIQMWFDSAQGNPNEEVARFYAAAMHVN
T2 sequence (P15328 25-234 limits assumed): as the sequence (P15328 other isoform, or with tags, fused parts or gaps limits assumed) above, with T2I, T3A, R4W, K37R, P146A, Y171H counted along it
T5 sequence (P15328 25-233 limits assumed): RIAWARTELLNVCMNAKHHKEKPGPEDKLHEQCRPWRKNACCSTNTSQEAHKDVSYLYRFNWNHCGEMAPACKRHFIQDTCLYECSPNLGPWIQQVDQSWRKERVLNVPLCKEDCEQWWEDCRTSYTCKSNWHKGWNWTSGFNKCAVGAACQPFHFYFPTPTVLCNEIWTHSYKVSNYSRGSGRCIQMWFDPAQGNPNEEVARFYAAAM

B1: v23924 (antibody, human IgG1, kappa, V domains shown)
VH: QSVKESEGGLFKPTDTLTLTCTVSGFSLSSYGVSWVRQAPGNGLEWIGAVNSGGSAYYANWAKSRSTITRNTNLFTVTLKMTSLAVADTATYFCARSGSGYPMDYLAIWGPGTLVTVSS
VL: AYDMTQTPASVEVAVGGTVTIKCQASQSIGDWLAWYQQKPGQPPRLLIYEASTLASGVPSRFSGSGSGTQFTLTISGVECADAATYYCQQGYGRSNVDNIFGGGTEVVVKR
notes: Rabbit-human chimeric full-size antibody, human IgG1/kappa, HomoFc; also called variant v23924; parental chimeric anti-FRα antibody
For B1, the binding result with FOLR2 on HEK293-6e cells [1] is given as “no binding (tested: 50 nM)”. The Kd came to 320 pM in the assay with human FRα on cells [2]; 50 pM with human FRα on cells [3]; 120 pM in assay [6]; 122 pM in assay [7]; 1370 pM in [8]. In addition, the entries for the “% Positive Binding, singlet population” value with human FRα on cells [4], with FOLR2 on HEK293-6e cells [5] and in the assay with FOLR4 on HEK293-6e cells were 71%, 0% and 0%, respectively. The “AF647/DyLight650 GeoMean, singlet population” value with human FRα on cells [4] turned out to be 7660; in the assay with FOLR2 on HEK293-6e cells [5] it was 7; with FOLR4 on HEK293-6e cells, 27.
